Source: the RNAGym collection of RNA variant scans (doi:10.7554/elife.80360)

B1: Twister Ribozyme (parent)
chain: AACACUGCCAAUGCCGGUCCCAAGCCCGGAUAAAAGUGGAGGGGGCGG

Variants of: B1
Assay: self-cleavage, relative activity (ratio to wild type); higher = more cleavage; co-transcriptional

| Variant | self-cleavage |
| --- | --- |
| AACACUGCCAAUGCCGGUCCCACGCCCGGAUAAAAGUGGAGGGGGCAG | 0.127 |
| AACACUGCCAAUUCCGGUCCCCAGCCCGGAUAAAAGUGGAGGGGGCGG | 0.708 |
| AACACCGCCAAUGCCGGUCACAAGCCCGGAUAAAAGUGGAGGGGGCGG | 0.0292 |
| AACACUGCCAAUGCUGGUCCCAAGCCCGGAUACAAGUGGAGGGGGCGG | 0.839 |
| AAUACUGCCUAUGCCGGUCCCAAGCCCGGAUAAAAGUGGAGGGGGCGG | 0.584 |
| AACACUGCCAAUGCCGGUACCAAGCCCGGAUAAAAGUGGAGGGGCCGG | 0.233 |
| AACACUGCCAAUGCCGGUCCCAAGCCCGGAUGAAAGUGGAGGGGGCAG | 0.924 |
| AACACUGCCAAUGCCGGUCCGAAGCUCGGAUAAAAGUGGAGGGGGCGG | 0.0515 |
| AACACUGCCAAUGCCGGUCCCGAGCCCGGAUAAGAGUGGAGGGGGCGG | 0.0987 |
| AACACUGCCAAUGUCGGUCCCAAGCCCGGAUAAAACUGGAGGGGGCGG | 0.464 |
| AUCACUGCCAAUGCCGGUCCCAAGCGCGGAUAAAAGUGGAGGGGGCGG | 0.128 |
| AACACUGCCAAUGCCGGUCCCUAGCCCGGAUAAAAGUGGAGGGGACGG | 0.678 |
| AACACUGCCAAUGCCGGUGCCAAGCCCGGAUAAAAGUGGAGGGAGCGG | 0.351 |
| AACACUGCCAAUGCCGGUCCCAAGCGCGGAUAAAAGAGGAGGGGGCGG | 0.126 |
| AACACUGCCAAUCCCGGUCCCAAGACCGGAUAAAAGUGGAGGGGGCGG | 0.0747 |
| ACCACUGCCAAUGCCGGUCCCAAGCCCGGAUAAAAGUGGAGGGGUCGG | 0.0774 |
| AACACUGCCAAUGCCGGUCCCAAGUCCGGAUAAAAGUAGAGGGGGCGG | 0.581 |
| AACACUUCCAAUGCCAGUCCCAAGCCCGGAUAAAAGUGGAGGGGGCGG | 0.0674 |
| AACACCGCCAAUGCCAGUCCCAAGCCCGGAUAAAAGUGGAGGGGGCGG | 0.318 |
| AACACUCCCAAUGCCGGUCCCAAGCCCGGAUAAAAGUGGAGGCGGCGG | 0.0825 |
| AACACUGCCAAUGCCGGUCCCAAGCCCGGAUAAAGGUUGAGGGGGCGG | 0.667 |
| AACACUGCCAAUGCCGGGCCCAAGCCCGGAUAAAAGUGUAGGGGGCGG | 0.0734 |
| AACACUGGCAAUGCCGGUCCCGAGCCCGGAUAAAAGUGGAGGGGGCGG | 0.0585 |
| AACACUGCCAAUGCCGGUCCCAAGCCCGGAUAAAGGUGGAGGGGGCCG | 0.562 |
| AAUACUGCCAAUGCCGGUCCCAAGCCCGGAUAAAAGCGGAGGGGGCGG | 0.172 |
| AACACUGCCAAUGCCGGUCCCAAGGCCGGAUAAAAGUGGAGGGGGCGA | 0.193 |
| AACACUGCCAAUGCCGGUCCCCAGCCCGGUUAAAAGUGGAGGGGGCGG | 1 |

| Variant | self-cleavage |
| --- | --- |
| AACACUGCCAAUGCCGGGCCCAAGCCCGGAUAAAGGUGGAGGGGGCGG | 0.0984 |
| AACACUGCCAAUGCCGGUCCCAAGCCCGGAUAAAAGUGGAGUGUGCGG | 0.196 |
| AACACUGCCAAUGCCAGUCCCAAGCGCGGAUAAAAGUGGAGGGGGCGG | 0.112 |
| CACACUGCCAAUGCCGGGCCCAAGCCCGGAUAAAAGUGGAGGGGGCGG | 0.136 |
| AACACUGCCAACGCAGGUCCCAAGCCCGGAUAAAAGUGGAGGGGGCGG | 0.739 |
| AAAACUGCCAAUGCCGGUCCCAAACCCGGAUAAAAGUGGAGGGGGCGG | 0.0635 |
| AACACUGACAAUGCCGGUCCCAAGCCCGGAUAAAAGUGGAGGGGGAGG | 0.167 |
| AACACUGCUAAUGCCGGUGCCAAGCCCGGAUAAAAGUGGAGGGGGCGG | 0.101 |
| AACACUACCAAUGCCGGUCCCAAGCCCGGAUAAAAGUGGAUGGGGCGG | 0.11 |
| AACACUGCCAAUGAGGGUCCCAAGCCCGGAUAAAAGUGGAGGGGGCGG | 0.31 |
| AACACUGCCAAAGCCGGUCCCAAGCCCGGAUAAAAGUGGAGGGGGCGC | 1.22 |
| AACACUGUCAAUGCCGGUACCAAGCCCGGAUAAAAGUGGAGGGGGCGG | 0.0797 |
| AACACUGCCAAUGCGGGUCCCAAGCCCGGAUAAAAGUGUAGGGGGCGG | 0.0441 |
| AACACUGCCAAUGCCGGUCACAAGCCCGGAUAAAAGUGGAAGGGGCGG | 0.0878 |
| AACACUUCCAUUGCCGGUCCCAAGCCCGGAUAAAAGUGGAGGGGGCGG | 0.0842 |
| AACACUGCCAAUGCCGGUUCCAAGCCCGGAUCAAAGUGGAGGGGGCGG | 1.05 |
| AACACUGACAAUGCCGGUCCCAAGGCCGGAUAAAAGUGGAGGGGGCGG | 0.0894 |
| AACACUGCCAAUGCCGGUCCCAAGCCAGGAUAAAAGUGGAGCGGGCGG | 0.139 |
| AACACUGCCAAUGCCGUUCCCAAGCCCGGGUAAAAGUGGAGGGGGCGG | 0.265 |
| AUCACUGCCAACGCCGGUCCCAAGCCCGGAUAAAAGUGGAGGGGGCGG | 0.732 |
| AACACUGCCUAUGCCGGUCCCAAGCCCGGAUAAAAGUGCAGGGGGCGG | 0.0863 |
| AACACUGCCAAUGCCGGCCCCAAGCCCGGAUAAAAGUGGAGGGGUCGG | 0.228 |
| AACACUGCCAAUGCCGGGCCCAAGCCAGGAUAAAAGUGGAGGGGGCGG | 0.0641 |
| AACACUGCCAAUGCCGGUCCCAAGCCCGGAUAAAAGCGGAGGGGUCGG | 0.515 |
| AACACUGCCAAUGCCGGUCCCCAGCCCGGAUAAAAGUGGGGGGGGCGG | 0.128 |
| AACACUGCCAAUGCCGGUCCCUAGCCCGGUUAAAAGUGGAGGGGGCGG | 0.999 |
| AACACUGCCAAUGCCGGUCCCAAGCCUGGAUAACAGUGGAGGGGGCGG | 0.0865 |
